Reference: publication PMC549567
Like-named read-outs stand apart in the source and are kept apart here.

Columns and labels:
Experiment in all cases: EMSA
[1] = target: T1, MutS (Escherichia coli, UniProt P23909 1-853)
T1 sequence: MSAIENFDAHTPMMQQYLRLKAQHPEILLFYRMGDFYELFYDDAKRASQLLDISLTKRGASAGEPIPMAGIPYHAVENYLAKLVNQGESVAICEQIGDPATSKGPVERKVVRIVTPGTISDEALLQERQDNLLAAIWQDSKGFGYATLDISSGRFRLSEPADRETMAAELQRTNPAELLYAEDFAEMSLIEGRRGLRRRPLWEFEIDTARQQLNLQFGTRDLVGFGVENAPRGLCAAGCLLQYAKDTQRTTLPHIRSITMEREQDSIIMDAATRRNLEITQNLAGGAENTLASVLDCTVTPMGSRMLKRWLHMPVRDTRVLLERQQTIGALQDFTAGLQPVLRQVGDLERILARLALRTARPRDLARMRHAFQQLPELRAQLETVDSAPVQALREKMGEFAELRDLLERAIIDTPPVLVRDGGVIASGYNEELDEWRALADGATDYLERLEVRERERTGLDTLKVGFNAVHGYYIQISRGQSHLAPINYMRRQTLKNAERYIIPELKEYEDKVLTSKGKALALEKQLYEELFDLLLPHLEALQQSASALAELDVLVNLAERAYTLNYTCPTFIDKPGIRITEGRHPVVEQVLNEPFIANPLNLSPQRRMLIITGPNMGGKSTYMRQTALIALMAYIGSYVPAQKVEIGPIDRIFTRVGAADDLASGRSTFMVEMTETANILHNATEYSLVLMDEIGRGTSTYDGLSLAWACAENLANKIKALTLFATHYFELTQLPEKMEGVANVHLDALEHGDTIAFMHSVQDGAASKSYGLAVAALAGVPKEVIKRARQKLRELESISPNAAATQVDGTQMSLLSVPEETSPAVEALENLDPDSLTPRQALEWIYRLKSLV

[2] = target: T2, MutSΔ800 (Escherichia coli, UniProt P23909 1-800, del801-853)
T2 sequence: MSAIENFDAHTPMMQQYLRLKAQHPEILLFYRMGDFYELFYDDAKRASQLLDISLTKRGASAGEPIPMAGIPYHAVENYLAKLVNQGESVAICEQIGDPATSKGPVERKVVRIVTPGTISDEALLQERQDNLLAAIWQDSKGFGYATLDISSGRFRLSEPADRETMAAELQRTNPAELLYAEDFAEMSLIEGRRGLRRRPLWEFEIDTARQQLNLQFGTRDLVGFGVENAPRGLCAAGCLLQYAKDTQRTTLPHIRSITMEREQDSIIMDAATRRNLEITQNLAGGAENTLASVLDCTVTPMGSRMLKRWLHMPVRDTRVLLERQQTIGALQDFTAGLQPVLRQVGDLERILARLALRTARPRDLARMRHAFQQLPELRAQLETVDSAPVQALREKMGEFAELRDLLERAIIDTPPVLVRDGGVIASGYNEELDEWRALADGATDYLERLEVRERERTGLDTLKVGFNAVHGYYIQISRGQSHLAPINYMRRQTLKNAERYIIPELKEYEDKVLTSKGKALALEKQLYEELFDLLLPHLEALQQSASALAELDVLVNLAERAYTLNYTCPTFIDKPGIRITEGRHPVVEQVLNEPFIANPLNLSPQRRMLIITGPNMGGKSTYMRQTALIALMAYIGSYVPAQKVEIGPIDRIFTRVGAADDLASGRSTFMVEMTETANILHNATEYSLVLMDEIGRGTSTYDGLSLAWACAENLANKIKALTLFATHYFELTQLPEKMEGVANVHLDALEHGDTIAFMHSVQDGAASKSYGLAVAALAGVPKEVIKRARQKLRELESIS

[3] = target: T1, MutS; remark: listed apart in the source
[4] = target: T2, MutSΔ800; remark: listed apart in the source

B1: O6-meG-C duplex (dsDNA)
DNA 1: ATACGGAAGTTAAAGTGCGGATCATCTCTAG
DNA 2: CTAGAGATGATCCGCACTTTAACTTCCGTAT
modifications: O6-methylguanine at G17 of strand 1
binding result [1]: binds
binding result [2]: binds

B2: Xlink platinated GG-CC (dsDNA)
DNA 1: CCTCTCCTTGGTCTTCTCCTCTCC
DNA 2: GGAGAGGAGAAGACCAAGGAGAGG
modifications: cisplatin intrastrand 1,2-GG cross-link at G10-G11 of strand 1
binding result [3]: binds
binding result [4]: no binding

B3: Xlink unplatinated homoduplex GG-CC (dsDNA)
DNA 1: CCTCTCCTTGGTCTTCTCCTCTCC
DNA 2: GGAGAGGAGAAGACCAAGGAGAGG
binding result [3]: no binding
binding result [4]: no binding
